In patent publication US20150218238A1, “TREATING DISEASES BY MODULATING A SPECIFIC ISOFORM OF MKL1” (NOVARTIS FORSCHUNGSSTIFTUNG, ZWEIGNIEDERLASSUNG FRIEDRICH …, priority 2012, published 2015):

System: EcR-293 cells
Assay: DNA microarray on EcR-293 cells overexpressing MKL1 isoforms
Assay type: cell-based, human
Details: for ACTA2 fold change vs. control / ADAM21 fold change vs. control / AMBN fold change vs. control / CNN2 fold change vs. control / DSEL fold change vs. control / ESRRG fold change vs. control / MKL1 (total) fold change vs. control / MMP16 fold change vs. control / NAP1L3 fold change vs. control / OSTN fold change vs. control / PDGFD fold change vs. control / ROCK1P1 fold change vs. control / RORB fold change vs. control / SLC8A1 fold change vs. control / SPOCK3 fold change vs. control: vs empty pcDNA3 vector
Method: DNA microarray EcR-293 cells stably transfected with 1) the empty pcDNA3 vector, 2) 5′UTR-MKL_L, 3) 5′UTR-MKL_S were grown in triplicates. For “untreated” samples, total RNA was extracted from cells in D-MEM/10% FBS. “LPA treated” cells were starved for 16 h in D-MEM/0.3% FBS and subsequently treated with 50 μm LPA for 20 min. RNA was extracted 4 h after treatment. RNA was converted into labeled cRNA and hybridized to Affymetrix Human Gene 1.0 arrays (Affymetrix, Santa Clara, Calif., USA). The procedure for the microarray analysis was as previously described (4). Differences in gene expression were calculated for 2) vs. 1), 3) vs. 1), and 3) vs. 2). • (1) Miralles F et al., Cell, Volume 113, Issue 3, May 2003, 329-342 • (2) Maier S et al., Biochimica et Biophysica Acta (BBA)—Molecular Cell Research, Volume 1783, Issue 6, June 2008, 1150-1162 • (3) Martina et al., The FASEB Journal, Volume 24, Issue 3, March 2010, 778-787 • (4) Asparuhova et al., The FASEB Journal, Volume 25, Issue 10, October 2011, 3477-3488

B1: MKL_S: novel short isoform of human MKL1 (SEQ ID NO:1), stably overexpressed in EcR-293 cells from construct 5′UTR-MKL_S (protein, listed as Homo sapiens)
chain: MTLLEPEMLMMAVQSVLQLKLQQRRTREELVSQGIMPPLKSPAAFHEQRRSLERARTEDYLKRKIRSRPERSELVRMHILEETSAEPSLQAKQLKLKRARLADDLNEKIAQRPGPMELVEKNILPVESSLKEAIIVGQVNYPKVADSSSFDEDSSDALSPEQPASHESQGSVPSPLEARVSEPLLSATSASPTQVVSQLPMGRDSREMLFLAEQPPLPPPPLLPPSLTNGTTIPTAKSTPTLIKQSQPKSASEKSQRSKKAKELKPKVKKLKYHQYIPPDQKQDRGAPPMDSSYAKILQQQQLFLQLQILNQQQQQHHNYQAILPAPPKSAGEALGSSGTPPVRSLSTTNSSSSSGAPGPCGLARQNSTSLTGKPGALPANLDDMKVAELKQELKLRSLPVSGTKTELIERLRAYQDQISPVPGAPKAPAATSILHKAGEVVVAFPAARLSTGPALVAAGLAPAEVVVATVASSGVVKFGSTGSTPPVSPTPSERSLLSTGDENSTPGDTFGEMVTSPLTQLTLQASPLQILVKEEGPRAGSCCLSPGGRAELEGRDKDQMLQEKDKQIEALTRMLRQKQQLVERLKLQLEQEKRAQQPAPAPAPLGTPVKQENSFSSCQLSQQPLGPAHPFNPSLAAPATNHIDPCAVAPGPPSVVVKQEALQPEPEPVPAPQLLLGPQGPSLIKGVAPPTLITDSTGTHLVLTVTNKNADSPGLSSGSPQQPSSQPGSPAPAPSAQMDLEHPLQPLFGTPTSLLKKEPPGYEEAMSQQPKQQENGSSSQQMDDLFDILIQSGEISADFKEPPSLPGKEKPSPKTVCGSPLAAQPSPSAELPQAAPPPPGSPSLPGRLEDFLESSTGLPLLTSGHDGPEPLSLIDDLHSQMLSSTAILDHPPSPMDTSELHFVPEPSSTMGLDLADGHLDSMDWLELSSGGPVLSLAPLSTTAPSLFSTDFLDGHDLQLHWDSCL
ACTA2 fold change MKL_S vs. MKL_L (4 h after LPA treatment): <1.20 fold
ADAM21 fold change MKL_S vs. MKL_L (4 h after LPA treatment): +1.65 (2.95E−05) fold
AMBN fold change MKL_S vs. MKL_L (4 h after LPA treatment): +1.67 (1.04E−03) fold
CNN2 fold change MKL_S vs. MKL_L (4 h after LPA treatment): +1.44 (1.06E−06) fold
DSEL fold change MKL_S vs. MKL_L (4 h after LPA treatment): +1.50 (2.87E−04) fold
ESRRG fold change MKL_S vs. MKL_L (4 h after LPA treatment): <1.20 fold
MKL1 (total) fold change MKL_S vs. MKL_L (4 h after LPA treatment): −1.91 (3.79E−06) fold
MMP16 fold change MKL_S vs. MKL_L (4 h after LPA treatment): +2.54 (1.95E−05) fold
NAP1L3 fold change MKL_S vs. MKL_L (4 h after LPA treatment): +1.49 (1.82E−03) fold
OSTN fold change MKL_S vs. MKL_L (4 h after LPA treatment): +1.92 (1.57E−04) fold
PDGFD fold change MKL_S vs. MKL_L (4 h after LPA treatment): <1.20 fold
ROCK1P1 fold change MKL_S vs. MKL_L (4 h after LPA treatment): +1.60 (1.99E−03) fold
RORB fold change MKL_S vs. MKL_L (4 h after LPA treatment): <1.20 fold
SLC8A1 fold change MKL_S vs. MKL_L (4 h after LPA treatment): −1.31 (1.42E−03) fold
SPOCK3 fold change MKL_S vs. MKL_L (4 h after LPA treatment): 2.18 (2.70E−06) fold
ACTA2 fold change MKL_S vs. MKL_L (untreated cells): <1.20 fold
ADAM21 fold change MKL_S vs. MKL_L (untreated cells): <1.20 fold
AMBN fold change MKL_S vs. MKL_L (untreated cells): +1.73 (5.61E−04) fold
CNN2 fold change MKL_S vs. MKL_L (untreated cells): +1.53 (7.48E−06) fold
DSEL fold change MKL_S vs. MKL_L (untreated cells): +1.51 (1.13E−03) fold
ESRRG fold change MKL_S vs. MKL_L (untreated cells): <1.20 fold
MKL1 (total) fold change MKL_S vs. MKL_L (untreated cells): −1.54 (8.11E−08) fold
MMP16 fold change MKL_S vs. MKL_L (untreated cells): +2.03 (9.27E−06) fold
NAP1L3 fold change MKL_S vs. MKL_L (untreated cells): +1.75 (1.30E−04) fold
OSTN fold change MKL_S vs. MKL_L (untreated cells): +1.90 (2.17E−04) fold
PDGFD fold change MKL_S vs. MKL_L (untreated cells): <1.20 fold
ROCK1P1 fold change MKL_S vs. MKL_L (untreated cells): <1.20 fold
RORB fold change MKL_S vs. MKL_L (untreated cells): <1.20 fold
SLC8A1 fold change MKL_S vs. MKL_L (untreated cells): <1.20 fold
SPOCK3 fold change MKL_S vs. MKL_L (untreated cells): +1.97 (6.82E−06) fold
ACTA2 fold change vs. control (4 h after LPA treatment): +2.02 (2.99E−05) fold
ADAM21 fold change vs. control (4 h after LPA treatment): +1.38 (3.69E−06) fold
AMBN fold change vs. control (4 h after LPA treatment): +5.14 (1.97E−07) fold
CNN2 fold change vs. control (4 h after LPA treatment): +1.67 (6.37E−08) fold
DSEL fold change vs. control (4 h after LPA treatment): +2.33 (1.17E−06) fold
ESRRG fold change vs. control (4 h after LPA treatment): +1.93 (4.52E−08) fold
MKL1 (total) fold change vs. control (4 h after LPA treatment): +2.41 (3.56E−07) fold
MMP16 fold change vs. control (4 h after LPA treatment): +5.86 (1.39E−07) fold
NAP1L3 fold change vs. control (4 h after LPA treatment): +2.78 (2.44E−06) fold
OSTN fold change vs. control (4 h after LPA treatment): +2.23 (3.48E−05) fold
PDGFD fold change vs. control (4 h after LPA treatment): +1.61 (8.28E−06) fold
ROCK1P1 fold change vs. control (4 h after LPA treatment): +1.53 (3.63E−03) fold
RORB fold change vs. control (4 h after LPA treatment): +1.46 (1.34E−04) fold
SLC8A1 fold change vs. control (4 h after LPA treatment): +1.67 (1.71E−05) fold
SPOCK3 fold change vs. control (4 h after LPA treatment): +5.04 (8.54E−09) fold
ACTA2 fold change vs. control (untreated cells): +2.30 (1.88E−07) fold
ADAM21 fold change vs. control (untreated cells): −1.21 (1.63E−02) fold
AMBN fold change vs. control (untreated cells): <1.20 fold
CNN2 fold change vs. control (untreated cells): +2.53 (1.91E−08) fold
DSEL fold change vs. control (untreated cells): +2.43 (5.20E−06) fold
ESRRG fold change vs. control (untreated cells): +2.37 (2.34E−08) fold
MKL1 (total) fold change vs. control (untreated cells): +3.70 (1.19E−11) fold
MMP16 fold change vs. control (untreated cells): +2.98 (3.46E−07) fold
NAP1L3 fold change vs. control (untreated cells): +2.68 (1.98E−06) fold
OSTN fold change vs. control (untreated cells): <1.20 fold
PDGFD fold change vs. control (untreated cells): +2.01 (4.75E−05) fold
ROCK1P1 fold change vs. control (untreated cells): <1.20 fold
RORB fold change vs. control (untreated cells): +1.96 (2.76E−07) fold
SLC8A1 fold change vs. control (untreated cells): +1.70 (5.75E−07) fold
SPOCK3 fold change vs. control (untreated cells): +3.21 (1.08E−07) fold

B2: MKL_L: published long isoform of human MKL1 (SEQ ID NO:3), stably overexpressed in EcR-293 cells from construct 5′UTR-MKL_L (protein, listed as Homo sapiens)
chain: LPPSVIAVNGMDGGGAGENDDEPVLVSLSAAPSPQSEAVANELQELSLQPELTLGLHPGRNPNLPPLSERKNVLQLKLQQRRTREELVSQGIMPPLKSPAAFHEQRRSLERARTEDYLKRKIRSRPERSELVRMHILEETSAEPSLQAKQLKLKRARLADDLNEKIAQRPGPMELVEKNILPVESSLKEAIIVGQVNYPKVADSSSFDEDSSDALSPEQPASHESQGSVPSPLEARVSEPLLSATSASPTQVVSQLPMGRDSREMLFLAEQPPLPPPPLLPPSLTNGTTIPTAKSTPTLIKQSQPKSASEKSQRSKKAKELKPKVKKLKYHQYIPPDQKQDRGAPPMDSSYAKILQQQQLFLQLQILNQQQQQHHNYQAILPAPPKSAGEALGSSGTPPVRSLSTTNSSSSSGAPGPCGLARQNSTSLTGKPGALPANLDDMKVAELKQELKLRSLPVSGTKTELIERLRAYQDQISPVPGAPKAPAATSILHKAGEVVVAFPAARLSTGPALVAAGLAPAEVVVATVASSGVVKFGSTGSTPPVSPTPSERSLLSTGDENSTPGDTFGEMVTSPLTQLTLQASPLQILVKEEGPRAGSCCLSPGGRAELEGRDKDQMLQEKDKQIEALTRMLRQKQQLVERLKLQLEQEKRAQQPAPAPAPLGTPVKQENSFSSCQLSQQPLGPAHPFNPSLAAPATNHIDPCAVAPGPPSVVVKQEALQPEPEPVPAPQLLLGPQGPSLIKGVAPPTLITDSTGTHLVLTVTNKNADSPGLSSGSPQQPSSQPGSPAPAPSAQMDLEHPLQPLFGTPTSLLKKEPPGYEEAMSQQPKQQENGSSSQQMDDLFDILIQSGEISADFKEPPSLPGKEKPSPKTVCGSPLAAQPSPSAELPQAAPPPPGSPSLPGRLEDFLESSTGLPLLTSGHDGPEPLSLIDDLHSQMLSSTAILDHPPSPMDTSELHFVPEPSSTMGLDLADGHLDSMDWLELSSGGPVLSLAPLSTTAPSLFSTDFLDGHDLQLHWDSCL
ACTA2 fold change vs. control (4 h after LPA treatment): +1.86 (7.22E−05) fold
ADAM21 fold change vs. control (4 h after LPA treatment): −1.36 (8.44E−04) fold
AMBN fold change vs. control (4 h after LPA treatment): +3.09 (3.65E−06) fold
CNN2 fold change vs. control (4 h after LPA treatment): <1.20 fold
DSEL fold change vs. control (4 h after LPA treatment): +1.56 (1.45E−04) fold
ESRRG fold change vs. control (4 h after LPA treatment): +1.71 (2.20E−07) fold
MKL1 (total) fold change vs. control (4 h after LPA treatment): +4.61 (4.29E−09) fold
MMP16 fold change vs. control (4 h after LPA treatment): +2.30 (4.46E−05) fold
NAP1L3 fold change vs. control (4 h after LPA treatment): +1.86 (1.01E−04) fold
OSTN fold change vs. control (4 h after LPA treatment): <1.20 fold
PDGFD fold change vs. control (4 h after LPA treatment): +1.50 (2.62E−05) fold
ROCK1P1 fold change vs. control (4 h after LPA treatment): <1.20 fold
RORB fold change vs. control (4 h after LPA treatment): +1.53 (5.71E−05) fold
SLC8A1 fold change vs. control (4 h after LPA treatment): +2.18 (6.58E−07) fold
SPOCK3 fold change vs. control (4 h after LPA treatment): +2.31 (1.61E−06) fold
ACTA2 fold change vs. control (untreated cells): +2.62 (5.99E−08) fold
ADAM21 fold change vs. control (untreated cells): −1.27 (1.586−02) fold
AMBN fold change vs. control (untreated cells): −1.89 (2.18E−04) fold
CNN2 fold change vs. control (untreated cells): +1.65 (2.35E−06) fold
DSEL fold change vs. control (untreated cells): +1.61 (4.36E−04) fold
ESRRG fold change vs. control (untreated cells): +2.14 (6.11E−08) fold
MKL1 (total) fold change vs. control (untreated cells): +5.68 (1.23E−12) fold
MMP16 fold change vs. control (untreated cells): +1.47 (6.97E−04) fold
NAP1L3 fold change vs. control (untreated cells): +1.54 (7.53E−04) fold
OSTN fold change vs. control (untreated cells): −2.38 (2.56E−05) fold
PDGFD fold change vs. control (untreated cells): +1.93 (7.54E−05) fold
ROCK1P1 fold change vs. control (untreated cells): <1.20 fold
RORB fold change vs. control (untreated cells): +2.27 (5.80E−08) fold
SLC8A1 fold change vs. control (untreated cells): +1.89 (1.37E−07) fold
SPOCK3 fold change vs. control (untreated cells): +1.63 (7.80E−05) fold
